# Reference: US11278600B2, “Human alpha-galactosidase variants” (Codexis, Inc., priority 2014, dated 2022)
# Residue numbers refer to the chain shown, from its start.
# B1: 552 (protein)
# chain: LDNGLARTPTMGWLHWERFMCNLDCQEEPDSCISEKLFMEMAERMVSEGWKDAGYEYLCIDDCWMAPQRDSEGRLQADPQRFPHGIRQLANHVHSKGLKLGIYADVGNKTCAGFPGSFGYYDIDAQTFADWGVDLLKFDGCYCDSLENLADGYKHMSLALNRTGRSIVYSCEWPLYMWPFQKPNYTEIRQYCNHWRNFADIDDSWASIKSILDWTSRNQERIVDVAGPGGWNDPDMLVIGNFGLSWDQQVTQMALWAIMAAPLFMSNDLRHISPQAKALLQDKDVIAINQDPLGKQGYQLRKGDNFEVWERPLSGDDWAVAIINRQEIGGPRSYTIPVASLGKGVACNPACFITQLLPVKRQLGFYNWTSRLKSHINPTGTVLLQLENTMQMSLKDLL
# modifications: Synthetic Polypeptide sequence of Variant No. 552 of mature Human GLA
# B2: 555 (protein)
# chain: B1 chain with D317A, G344A
# modifications: Synthetic Polypeptide sequence of Variant No. 555 of mature Human GLA
# B3: 558 (protein)
# chain: B1 chain with D317A, I353L
# modifications: Synthetic Polypeptide sequence of Variant No. 558 of mature Human GLA
# B4: 561 (protein)
# chain: B1 chain with D317A, W368L
# modifications: Synthetic Polypeptide sequence of Variant No. 561 of mature Human GLA
# B5: 554 (protein)
# chain: B1 chain with D317A, A346G
# modifications: Synthetic Polypeptide sequence of Variant No. 554 of mature Human GLA
# B6: 562 (protein)
# chain: B1 chain with D317A, W368N
# modifications: Synthetic Polypeptide sequence of Variant No. 562 of mature Human GLA
# B7: 560 (protein)
# chain: B1 chain with D317A, W368A
# modifications: Synthetic Polypeptide sequence of Variant No. 560 of mature Human GLA
# B8: 556 (protein)
# chain: B1 chain with D317A, G344D
# modifications: Synthetic Polypeptide sequence of Variant No. 556 of mature Human GLA
# B9: 517 (protein)
# chain: B1 chain with D2Q, D317A
# modifications: Synthetic Polypeptide sequence of Variant No. 517 of mature Human GLA
# B10: 563 (protein)
# chain: B1 chain with D317A, W368R
# modifications: Synthetic Polypeptide sequence of Variant No. 563 of mature Human GLA
# B11: 564 (protein)
# chain: B1 chain with D317A, W368V
# modifications: Synthetic Polypeptide sequence of Variant No. 564 of mature Human GLA
# B12: 559 (protein)
# chain: B1 chain with D317A, L372W
# modifications: Synthetic Polypeptide sequence of Variant No. 559 of mature Human GLA
# B13: 553 (protein)
# chain: B1 chain with D317Q
# modifications: Synthetic Polypeptide sequence of Variant No. 553 of mature Human GLA
# B14: 557 (protein)
# chain: B1 chain with D317A, G344S
# modifications: Synthetic Polypeptide sequence of Variant No. 557 of mature Human GLA
# B15: 565 (protein)
# chain: B1 chain with D317A, N348E
# modifications: Synthetic Polypeptide sequence of Variant No. 565 of mature Human GLA
# B16: 566 (protein)
# chain: B1 chain with D317A, N348M
# modifications: Synthetic Polypeptide sequence of Variant No. 566 of mature Human GLA
# Experiment: HTP-analysis of yeast culture supernatants, no challenge (MUGal hydrolysis)
# Format: biochemical
# Conditions: activity of the variant/activity of Rd3BB (SEQ ID NO: 13)
# Summary of the method: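 Activity read as 4-methylumbelliferyl α-D-galactopyranoside hydrolysis: fluorescence (355/448 nm) after sodium carbonate stop, following 30-180 min at 37° C with 2 mM MUGal stock at pH 4.6–4.8. Enzyme source is unchallenged culture supernatant of INVSc1 yeast expressing GLA variants, grown 66-84 h at 30° C.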
row,Molecule,Relative Activity of GLA Variants After No Challenge (NC)
1,B1,+ (+ = 1.5 to 5 relative activity over Rd3BB (SEQ ID NO: 13))
2,B2,+ (+ = 1.5 to 5 relative activity over Rd3BB (SEQ ID NO: 13))
3,B3,− (− = <1.5 relative activity to Rd3BB (SEQ ID NO: 13))
4,B4,+ (+ = 1.5 to 5 relative activity over Rd3BB (SEQ ID NO: 13))
5,B5,+ (+ = 1.5 to 5 relative activity over Rd3BB (SEQ ID NO: 13))
6,B6,+ (+ = 1.5 to 5 relative activity over Rd3BB (SEQ ID NO: 13))
7,B7,+ (+ = 1.5 to 5 relative activity over Rd3BB (SEQ ID NO: 13))
8,B8,− (− = <1.5 relative activity to Rd3BB (SEQ ID NO: 13))
9,B9,+ (+ = 1.5 to 5 relative activity over Rd3BB (SEQ ID NO: 13))
10,B10,+ (+ = 1.5 to 5 relative activity over Rd3BB (SEQ ID NO: 13))
11,B11,+ (+ = 1.5 to 5 relative activity over Rd3BB (SEQ ID NO: 13))
12,B12,+ (+ = 1.5 to 5 relative activity over Rd3BB (SEQ ID NO: 13))
13,B13,+ (+ = 1.5 to 5 relative activity over Rd3BB (SEQ ID NO: 13))
14,B14,+ (+ = 1.5 to 5 relative activity over Rd3BB (SEQ ID NO: 13))
15,B15,+ (+ = 1.5 to 5 relative activity over Rd3BB (SEQ ID NO: 13))
16,B16,+ (+ = 1.5 to 5 relative activity over Rd3BB (SEQ ID NO: 13))

# Experiment: HTP-analysis of supernatants pretreated with acid (MUGal hydrolysis)
# Format: biochemical
# Conditions: activity of the variant/activity of Rd3BB (SEQ ID NO: 13); challenge at pH 3.7
# Summary of the method: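 Fluorescence of MUGal hydrolysis (Ex. 355 nm, Em. 448 nm) is read after sodium carbonate quench. The enzyme source is INVSc1 yeast culture supernatant, first exposed to pH 3.3-4.3 McIlvaine buffer at 37° C. for 1-3 h, then reacted at pH 4.8 for 30-180 minutes.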
row,Molecule,Relative Activity of GLA Variants After Challenge at pH 3.7
1,B1,+ (+ = 1.5 to 5 relative activity over Rd3BB (SEQ ID NO: 13))
2,B2,+ (+ = 1.5 to 5 relative activity over Rd3BB (SEQ ID NO: 13))
3,B3,− (− = <1.5 relative activity to Rd3BB (SEQ ID NO: 13))
4,B4,+ (+ = 1.5 to 5 relative activity over Rd3BB (SEQ ID NO: 13))
5,B5,+ (+ = 1.5 to 5 relative activity over Rd3BB (SEQ ID NO: 13))
6,B6,+ (+ = 1.5 to 5 relative activity over Rd3BB (SEQ ID NO: 13))
7,B7,++ (++ = >5 to 10 relative activity over Rd3BB (SEQ ID NO: 13))
8,B8,− (− = <1.5 relative activity to Rd3BB (SEQ ID NO: 13))
9,B9,+ (+ = 1.5 to 5 relative activity over Rd3BB (SEQ ID NO: 13))
10,B10,+ (+ = 1.5 to 5 relative activity over Rd3BB (SEQ ID NO: 13))
11,B11,+ (+ = 1.5 to 5 relative activity over Rd3BB (SEQ ID NO: 13))
12,B12,+ (+ = 1.5 to 5 relative activity over Rd3BB (SEQ ID NO: 13))
13,B13,+ (+ = 1.5 to 5 relative activity over Rd3BB (SEQ ID NO: 13))
14,B14,+ (+ = 1.5 to 5 relative activity over Rd3BB (SEQ ID NO: 13))
15,B15,+ (+ = 1.5 to 5 relative activity over Rd3BB (SEQ ID NO: 13))
16,B16,+ (+ = 1.5 to 5 relative activity over Rd3BB (SEQ ID NO: 13))

# Experiment: HTP-analysis of supernatants pretreated with base (MUGal hydrolysis)
# Format: biochemical
# Conditions: activity of the variant/activity of Rd3BB (SEQ ID NO: 13); challenge at pH 9.7
# Summary of the method: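 GLA variants were secreted by transformed INVSc1 yeast grown 66-84 h at 30° C. Supernatants were exposed to neutral-to-basic buffers (pH 7.0-9.7) at 37° C for 1-18 h, then assayed with MUGal in acidic citrate/McIlvaine buffer, with fluorescence read after quenching.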
row,Molecule,Relative Activity of GLA Variants After Challenge at pH 9.7
1,B1,++ (++ = >5 to 10 relative activity over Rd3BB (SEQ ID NO: 13))
2,B2,+ (+ = 1.5 to 5 relative activity over Rd3BB (SEQ ID NO: 13))
3,B3,+ (+ = 1.5 to 5 relative activity over Rd3BB (SEQ ID NO: 13))
4,B4,++ (++ = >5 to 10 relative activity over Rd3BB (SEQ ID NO: 13))
5,B5,++ (++ = >5 to 10 relative activity over Rd3BB (SEQ ID NO: 13))
6,B6,++ (++ = >5 to 10 relative activity over Rd3BB (SEQ ID NO: 13))
7,B7,++ (++ = >5 to 10 relative activity over Rd3BB (SEQ ID NO: 13))
8,B8,+ (+ = 1.5 to 5 relative activity over Rd3BB (SEQ ID NO: 13))
9,B9,+ (+ = 1.5 to 5 relative activity over Rd3BB (SEQ ID NO: 13))
10,B10,++ (++ = >5 to 10 relative activity over Rd3BB (SEQ ID NO: 13))
11,B11,++ (++ = >5 to 10 relative activity over Rd3BB (SEQ ID NO: 13))
12,B12,++ (++ = >5 to 10 relative activity over Rd3BB (SEQ ID NO: 13))
13,B13,++ (++ = >5 to 10 relative activity over Rd3BB (SEQ ID NO: 13))
14,B14,++ (++ = >5 to 10 relative activity over Rd3BB (SEQ ID NO: 13))
15,B15,++ (++ = >5 to 10 relative activity over Rd3BB (SEQ ID NO: 13))
16,B16,++ (++ = >5 to 10 relative activity over Rd3BB (SEQ ID NO: 13))
